# In patent US6833237B1, “Genes involved in stroke response and/or regulated by FK506, proteins encoded thereby, and methods of use” (Quark Biotech, Inc., priority 2000, dated 2004):
# B1: SEQ ID No 94: library-derived antisense cDNA fragment of KIAA 0538, expressed from retroviral vector pLXSN (nucleic acid, listed as Homo sapiens)
# antisense: TTAAAACTGCTTACCAGTGGCTGTCTGCGCTGCGGAAGGTGAGCATCAACAACACGGGACTGTTGGGCTCCTACCACCCTGGCGTCTTCCGTGGGGACAAGTGGAGCTGCTGCCACCAAAAAGAGAAGACAGGTCAGGGCTGCGATAAGACCCGGNCACGGGTGACCCTGCAGGAGTGGAATGACCCTNTTGACCGTGACCTTGAGGCCCANCTCATCTACCGGCACCTGCTGGGCGNGGAGGCCATGCTGTG
# modifications: expressed from retroviral vector pLXSN; (156)..(238) n
# notes: library-derived antisense cDNA fragment of KIAA 0538, expressed from retroviral vector pLXSN
# B2: full length cDNA clone of KIAA 0538: full-length KIAA0538 cDNA under the control of Tet-repressible promoter, transfected into P19 cells (nucleic acid, listed as Homo sapiens)
# DNA: B1 antisense
# modifications: under Tet-repressible promoter; (156)..(238) n
# notes: full-length KIAA0538 cDNA under the control of Tet-repressible promoter, transfected into P19 cells
# Key:
# [1] = system: BE2C cells; experiment: Dopamine toxicity in BE2C cells, viability by Neutral red staining; format: cell-based, human; conditions: for cell survival at high Dopamine concentrations compared to control: BE2C cells, infection and transfection, Dopamine 24 hours, vs empty vector (FIG. 4 and 5); for protection of cells (Neutral red staining): 24 hours after exposure to high dopamine concentrations
# From the text: The aim of the experiment was validation of the fragment of KIAA0538 found using Dopamine selection (SEQ. I.D. No 94) which has 253 nucleotides. A slightly smaller fragment was used , wherein the first 12 of the nucleotides of SEQ. I.D. No 94 were replaced with 5 different nucleotides. The location of this smaller fragment (having 246 nucleotides) within the KIAA0538 cDNA is from nucleotide 2020 to nucleotide 2265. For purpose of validation, cells were studied either after decrease of the gene expression by means of transfection or transduction with an antisense expressing vector (the fragment rescued from the library during the functional screening), or after increased gene expression using transfection with a full length expression vector. For experiment, BE2C cells were seeded into 6-well plates at density 100,000 cells/well. Retroviral vector expressing KIAA0538 antisense fragment (rescued in functional selection) fragment or empty vector (pLXSN) were introduced in neuroblastoma cells by two different methods—transfection using Fugen6 reagent (Rosh) or by retroviral infection. Population of transfected/transduced cells was enriched by 3 days G418 selection. BE2C cells were further treated with different concentrations of Dopamine for 24 hours and assayed for viability by Neutral red staining (FIG. 4—infection; FIG. 5—transfection).
# [2] = system: P19 cells; experiment: Colony formation assay in P19 cells, normoxic or ischemic conditions; format: cell-based, mouse; conditions: vs empty vector (FIG. 6)
# Experimental: FIG. 6B is a graphical representation of FIG. 6A.
# The effect of the full length KIAA0538 cDNA on cell survival was tested in colony formation assay in non-differentiated P19 cells stably expressing Tet-activator (confers high level of expression from responsive promoters). P19 cells were transfected with eithet empty vector or the same vector containing the full-length KIAA0538 cDNA under the control of Tet-repressible promoter. The number of transfected cells further taken for colony formation assay was normalized by cotransfection with GFP, so that the equal number of GFP-positive cells was taken for the assay. The cells were further plated and grown in the absence of tetracycline (to ensure the gene's expression) and in the presence of hygromycin (selectable marker) for 48 hours. Then part of the plates were subjected to 16 hours ischemia (0.5% O2 and no glucose) and following the transfer into normoxic conditions were further grown until the accomplishing of hygromycin selection (death of mock-transfected cells). The cell colonies grown in plates were fixed, stained with methylene blue and photographed with a CCD camera (FIG. 6). The area of the colonies was quantified using the IMAGE-Pro program.
Molecule,cell survival at high Dopamine concentrations compared to control ([1]; listed as KIAA0538 antisense fragment),cell survival at high Dopamine concentrations compared to control ([1]; listed as antisense KIAA0538 fragment),cell survival at high Dopamine concentrations compared to control ([1]; listed as antisense fragment of KIAA0538),"protection of cells (Neutral red staining) ([1]; retrovirally infected BE2C cells, vs control vector pLXSN (FIG. 4))","protection of cells (Neutral red staining) ([1]; transiently transfected BE2C cells, vs control vector pLXSN (FIG. 5))","effect on cell survival, colony formation ([2]; 16 hours ischemia (0.5% O2 and no glucose))","effect on cell survival, colony formation ([2]; 16 hours ischemia (0.5% O2 and no glucose), listed as KIAA0538)","effect on cell survival, colony formation ([2]; 16 hours ischemia (0.5% O2 and no glucose), listed as full-length cDNA)","effect on cell survival, colony formation ([2]; normoxic conditions, listed as KIAA0538)","effect on cell survival, colony formation ([2]; normoxic conditions, listed as full-length cDNA)"
B1,rescue of cells from apoptotic death,protects,increased cell survival,protection,protection,–,–,–,–,–
B2,–,–,–,–,–,very few colonies remaining,almost entirely non-viable,dramatically cytotoxic,detrimental,moderately cytotoxic
